Assay results published in PMC9396398, “Crystal structure of Ankyrin-G in complex with a fragment of Neurofascin reveals binding mechanisms required for integrity of the axon initial segment” (The Journal of Biological Chemistry, 2022).

How the values were obtained:
[1] = target: T1, AnkG R8-24 (Rattus norvegicus); experiment: ITC
T1 chain: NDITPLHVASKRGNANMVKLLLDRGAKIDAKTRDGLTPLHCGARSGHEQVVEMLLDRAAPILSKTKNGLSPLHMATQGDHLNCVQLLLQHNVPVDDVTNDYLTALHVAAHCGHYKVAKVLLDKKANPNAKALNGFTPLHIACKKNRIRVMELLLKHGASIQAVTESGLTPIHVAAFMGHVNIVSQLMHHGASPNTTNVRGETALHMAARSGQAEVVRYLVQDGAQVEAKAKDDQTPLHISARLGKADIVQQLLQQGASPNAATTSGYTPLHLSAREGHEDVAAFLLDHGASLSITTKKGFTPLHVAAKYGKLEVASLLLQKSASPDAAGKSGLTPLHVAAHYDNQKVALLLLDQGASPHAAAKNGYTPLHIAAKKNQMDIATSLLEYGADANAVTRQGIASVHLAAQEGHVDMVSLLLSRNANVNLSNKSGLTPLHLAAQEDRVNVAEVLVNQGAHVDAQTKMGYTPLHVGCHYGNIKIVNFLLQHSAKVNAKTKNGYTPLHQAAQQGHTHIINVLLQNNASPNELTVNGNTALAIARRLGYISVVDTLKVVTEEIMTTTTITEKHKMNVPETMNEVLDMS

[2] = target: T2, AnkG R6-24 (Rattus norvegicus); experiment: ITC
T2 chain: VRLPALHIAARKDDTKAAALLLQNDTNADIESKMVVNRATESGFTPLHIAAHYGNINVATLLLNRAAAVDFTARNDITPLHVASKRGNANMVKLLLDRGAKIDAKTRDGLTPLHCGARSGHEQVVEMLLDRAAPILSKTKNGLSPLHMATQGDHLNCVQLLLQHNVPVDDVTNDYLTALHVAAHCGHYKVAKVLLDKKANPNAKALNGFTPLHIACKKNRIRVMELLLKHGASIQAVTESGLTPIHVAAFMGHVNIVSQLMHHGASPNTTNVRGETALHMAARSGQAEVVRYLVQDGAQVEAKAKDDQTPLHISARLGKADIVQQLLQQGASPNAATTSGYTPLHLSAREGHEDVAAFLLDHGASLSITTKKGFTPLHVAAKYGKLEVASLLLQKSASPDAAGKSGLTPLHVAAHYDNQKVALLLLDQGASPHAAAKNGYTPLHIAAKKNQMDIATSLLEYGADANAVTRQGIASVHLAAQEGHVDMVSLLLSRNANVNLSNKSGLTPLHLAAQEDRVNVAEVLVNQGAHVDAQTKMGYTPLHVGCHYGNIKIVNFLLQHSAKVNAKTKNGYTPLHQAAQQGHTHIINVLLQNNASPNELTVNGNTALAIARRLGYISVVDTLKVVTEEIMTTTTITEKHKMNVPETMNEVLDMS

Kd [1]: 1100 nM
Kd [2]: 130 nM
B1: Nfasc ankyrin-binding domain (ABD, residues 1187-1214) (domain or fragment, UniProt P97685 1187-1214, looked up)
chain: SDDSLVDYGEGGEGQFNEDGSFIGQYTV
notes: also called Nfasc ABD; source: E. coli BL21 (DE3), purified (Ni-NTA, size-exclusion chromatography)
